In PMC9683861 (Journal of Molecular Biology, 2022):
Non-standard residues stand in square brackets, D forms with d. No end group written: not given here. pT = C[C@@H](OP(=O)(O)O)[C@H](N)C(=O)O; pS = N[C@@H](COP(=O)(O)O)C(=O)O

Experiments:
[1] = target: T1, 14-3-3σ (1-231 aa) (75EEK77→75AAA77, Clu3) (human, UniProt P31947 1-231, 75EEK77 → 75AAA77); assay: crystal structure
T1 sequence: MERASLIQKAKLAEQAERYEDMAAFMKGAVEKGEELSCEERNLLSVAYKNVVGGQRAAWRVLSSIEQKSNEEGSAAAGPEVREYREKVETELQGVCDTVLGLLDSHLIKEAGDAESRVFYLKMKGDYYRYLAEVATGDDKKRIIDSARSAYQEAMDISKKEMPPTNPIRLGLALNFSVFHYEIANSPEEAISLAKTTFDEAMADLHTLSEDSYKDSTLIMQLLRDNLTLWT

[2] = target: T2, 14-3-3σ (1-231 aa) (159KKE161→159AAA161, Clu1) (human, UniProt P31947 1-231, 159KKE161 → 159AAA161); assay: crystal structure
T2 sequence: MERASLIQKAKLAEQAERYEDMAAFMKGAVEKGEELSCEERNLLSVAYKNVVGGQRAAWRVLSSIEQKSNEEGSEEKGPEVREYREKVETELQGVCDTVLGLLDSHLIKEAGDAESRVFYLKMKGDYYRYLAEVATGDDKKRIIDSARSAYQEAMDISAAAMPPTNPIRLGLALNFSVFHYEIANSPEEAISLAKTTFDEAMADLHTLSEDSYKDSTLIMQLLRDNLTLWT

[3] = target: T3, FITC-labeled SARS-CoV-2 N pS197 phosphopeptide WSSRNpSTPGSS (SARS-CoV-2, also: FITC label, position not given here); assay: fluorescence polarisation
T3 peptide: WSSRN[pS]TPGSS

[4] = target: T4, FITC-labeled SARS-CoV-2 N pT205 phosphopeptide WSSRGpTSPARM (SARS-CoV-2, also: FITC label, position not given here); assay: fluorescence polarisation
T4 peptide: WSSRG[pT]SPARM

WSSRN[pS]TPGSS [Unlabeled SARS-CoV-2 N pS197 phosphopeptide WSSRNpSTPGSS]
binding result [1]: binds

WSSRG[pT]SPARM [Unlabeled SARS-CoV-2 N pT205 phosphopeptide WSSRGpTSPARM]
binding result [2]: binds

B1: MBP-tagged full-length human 14-3-3 sigma (σ) (natural protein)
chain: MERASLIQKAKLAEQAERYEDMAAFMKGAVEKGEELSCEERNLLSVAYKNVVGGQRAAWRVLSSIEQKSNEEGSEEKGPEVREYREKVETELQGVCDTVLGLLDSHLIKEAGDAESRVFYLKMKGDYYRYLAEVATGDDKKRIIDSARSAYQEAMDISKKEMPPTNPIRLGLALNFSVFHYEIANSPEEAISLAKTTFDEAMADLHTLSEDSYKDSTLIMQLLRDNLTLWTADNAGEEGGEAPQEPQS
KD ratio to the 14-3-3γ/pT205 pair [3]: ~10 fold
fold weaker affinity than of 14-3-3σ for the pT205 peptide [3]: ~3 fold

B2: MBP-tagged full-length human 14-3-3 gamma (γ) (natural protein)
chain: MVDREQLVQKARLAEQAERYDDMAAAMKNVTELNEPLSNEERNLLSVAYKNVVGARRSSWRVISSIEQKTSADGNEKKIEMVRAYREKIEKELEAVCQDVLSLLDNYLIKNCSETQYESKVFYLKMKGDYYRYLAEVATGEKRATVVESSEKAYSEAHEISKEHMQPTHPIRLGLALNYSVFYYEIQNAPEQACHLAKTAFDDAIAELDTLNEDSYKDSTLIMQLLRDNLTLWTSDQQDDDGGEGNN
KD ratio pS197 peptide / pT205 peptide (selectivity coefficient) [4]: ~7 fold
